According to the domain aggregation screens of Martell et al. (2025):

Assay: soluble fraction after stress (log2 fold change); higher = more stays soluble; pooled small domains, quantitative proteomics
Conditions: stress: 75 degC
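Note: 20 min heating vs room temperature control held 20 min.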

Sequence	soluble fraction (log2)
HMGVSEIGSPAWMESKLVTLASYEGSLDGLRTLWGGVAQHRARIPVESWDRLFAAKEEGKARLVKLGRT	-1.25
HMGVSLREVPVAEHGDWIGRPIKELGIPAEVLIVLVRRADGTTVVPKGGTVLQQGDMLVVNEWEE	-1.16
HMGVTDSSYNVLRRQILEMLSVQQRTPADLARLIEADKEEIAAVIRFLLDKGEIQMEDGMLQTK	-0.821
HMGVVEEVAADFEGRAVVGKVDVDEQTELARRFGIMSIPTLVVMKGGKVVEQAVGARGKADIAAMLERH	0.183
HMGYINLNVKVSPEWRDFWRSAYASVVAGYHQNKEHWNTIILDGSIPDKDIKRMIAESYDLVSD	-0.561
HMGYLNDRQRLIKDFITENQPLKVSDLVKQFPNIGLSTLKKDLQYLRGEQVLTMIGKGKGSVYVLNKK	-0.975
HMGYNDQEVKSNLITLLSTSKTGLSGVEISAQLGINRVTMTKFLNVFAAEGIIKQKNIGNLNLWLVEEGTE	-3.44
HMGYTTSFVVQLKNAVSISFDEIDQNLRKLPGVEDVVIVEEAAMAYLKVDRQHFREEQLAHFEFVRQ	-1.99
HMGYVQLTAREKEVLQGLVDGASYKMIAAKLDIRFGTVHTHVKNIYEKLHVNSASEAVVKAIRQRL	-2.26
HMHADIAATVVATMRQLGVLGLPRNYEIFYEALSGTNRELSLAVVSLSNRPTQDDLDRIGRRFFA	-1.33
HMHAEEIAREAKEALERGEEFHFAGITVRSEEALEFLEEWLRKFF	-1.02
HMHALSVKFSDEAAKTLPYDILSALRDVLALDPRPGYSRDENKIYRFEYADYNISFSVKDKTLTVLSAEK	-2.15
HMHAPRIEVVQIDPEKIGALIGPGGKNIRRITEVTGANLDIDEDNSGKIRVYASDSEAMNRALQEIDLVT	0.308
HMHDHKTRLQELAAQRFGSAPSYLLTADGPAHDRRFHASVEVGGRSFGPGTGKSKKRAEQVAAHIAWDALS	0.238
HMHDIPDITDLRPLRHTLGLTLAHAAQQLNTTTATISRLERGQHRNDHLATTYRTWLHTHPT	-0.291
HMHDLSQQIVRYLIQQGGSSSLTDKSDPQEIYRTFKVSKKKYKQALGNLYKSKTIVITSGKIELVD	-3.03
HMHDYNTIVGVIEMRDKNIPLTSIRQRYGIGYSGIDLILTRYKDSGLTLKEFLALDPSQAEELIYPPK	-0.961
HMHEHWDGSGFPKHLRGANIPLGARVIAVADTYDSITSSRAYRAGSTHEAAEREMRRVSGTQLDPE	0.0624
HMHEIVDTVLQVKQSVEADPLIAPALKNKEIVFQLNAKGVFQFKNAVIQVASALGISKNTVYMHLRNNK	-3.04
HMHETMGQIIKRLRKERGLTQESLAERLGVTFQAVSKWETDAGMPDVSQIVPLANAFGVRTDVLFGLEGRD	-0.744
HMHEYSRIYQQQWWDNATGADAYHVIHSARSRAAQDPEAARALEYLEEQFRIRYGVRTEDFLGYLHD	-1.2
HMHFENEETFVLPLVREGFSEQQQLEMVDRLLFDANTDNPRWIIDWMASELPSTQRELLLDLEKRLAEVRS	-0.0441
HMHFEWNELRKAINDFLAEQNMNEDKQLGPYFIQRDIVVPETGTEIDSKKFSEVFKHKVIMYLFDDAAKQ	0.0433
HMHGESISVPDLRGQKMERMPAFLADKHLQFKVIDSLFDLEKNPGTVLEQDPAPNSKVKEGRTIYLTVNAQ	-0.00257
HMHGQGTYTSPDGTKYVGDWQDEKMHGQGTYTYPDGMKFVGEFKDNKPWNGTGYDKYGNVKATFSNGVGKS	-0.0508
HMHGSSSTVPPVKGLSFEQARLTLAENDLTVEISDSIYDRNARPGTVVESWPRAGSVVKQGRQVYVTVTAF	-0.894

Sequence	soluble fraction (log2)
HMHHDDHNQQEEIKEKLLAMVADGERHHVTEVRQLDEDWDMVTKVMKELMDEEQLLMDGSYLILSA	0.116
HMHHSGLRQSQFDEISRQIRSLLEMESLSLQELKTRMEDVPEEQLTKVVSYLLSEEIIRQENGRLQ	0.254
HMHKAVVGPPNARKLAVTYGFKRWPALVFFRDGKYLGAVDGLRLWADLVREADEIMHSEPHYP	0.0613
HMHKFMEQNQDRRLSRMKELIGILSEAAKTYYQESREIMSNFQYDRMYDELLELEKETGVVMAGSPTQKV	-0.276
HMHKKQEVQDSIDAAEEFMRASGVPAELITSKRAYAVKAIYADAVDKGTPDEIVKKDGMIVALISQMRS	0.421
HMHKLTIEEALNYKTPANAGGPYSGKPFRDIYDQRGKAAVISFAKYYLSKATPEDPMVEVYRTLLDGAMEL	-1.61
HMHKREKSFFETIYDDIPGIGKKRRVQLLSAYPTLDSLKSVTLEELKQIVPEESAKLILEKRDSR	0.0151
HMHPARITATVRVGEGDLVDIEREAELGGPIHSKGVMILSSFLGARYARTVPLSLSASLVFEQSY	0.0581
HMHPDALTEREREVLSLLADGLSNREIAARLVLALGTVKWYISVIYSKLGVTRRTQAIARARELHLV	-0.0116
HMHPEETVNLILDAAFRLFLEKGYEHTSIQDIIGQLGGLSKGAIYHHFNSKEDILIAVTDRMTA	-2.12
HMHPEQTLEKIVDISAELFAKKGYEQTSIQDILDATGLSKGGLYHHFKSKEEILEAVMQKRVQY	-0.154
HMHPFELNTVTEGQLKRLPFLSDLQIRELLEYRSRYGKMLTLYELKNVEAFDLETISLLVPFIYISEI	-1.36
HMHPKTPDELLALMSEEQRGQIEQLAKLVLMAVSYSGASYYDAVTTMYPRMSEERRRIITHVLNTASP	-0.908
HMHPLFRVVLAGEPNGVGLDDWLTRHEAELINGPSAIGVLTVKIAMGRRSFETVLDEIRADGETIFVEPV	-3.49
HMHPTDMKLTARLEEGAQFVRTQQLSKAIEIFTEVIKLDQNWAEAWNKRATVFYMMGKFKQSQEDIDKVLA	0.0611
HMHPTEKNLTSLLADGSFYMNQNKLETAYDTFTKTIELDPSWAEAWNKRATVLYLMGKYELSQADIDQV	0.0869
HMHPVTGRIGTVTAANGLNLRADSSEYANVVATLGYGVDVTVTGERINGFYPVRVGTLSGYVSADYVSFNS	-1.23
HMHQVHKIDGVKYYLHLVEKGNTLYGISKQYNVSVERIEKANTEALSDGLKENQTLLIPVTSDNKKT	-0.537
HMHREITGSLAERNGRYTAILNLYDEDGKRRQKSIALGIPVKGNKRKAQAQLEELKRAYSLGLPQ	-0.346
HMHRGTPASIIAAAKQYLTGGQTVELYEREGGPWTFRLRTYLSETPYPEKVRASVEALKPAGVVFLYELQS	-0.019
HMHRIKRRNDTLVSALDSIAGIGAKRKKALLQHFGSVRAIKAVSAEEIAKVEGISPTLANQIFEAL	-1.07
HMHRTMFYLDVDLAEGQSVKMAVHEDDDPGELAARFADEHQLKSRAMEKLRSVIEENVRLHRRNQ	-0.57
HMHRTRNAERTRAAVLKAAAEVLAERGTGASLARIAEVAGVSKSGLLHHFANREQLIVALLED	-1.16
HMHSIFPVIRSTSFPTKSNDGELFITSDHTAETRIYYALDLGNTYRLIDQKVMNEINLTESLVKETARF	-1.72
HMHSILDDIEGIGPARRKALMRHYMNLDAIKSATVEELAAVPSMNEKSAKAVHNFFHQQKKD	0.0285
HMHSKQRDAIFENLRSRKDHPTAEEIYLSLKPAMPAISLATVYRNLAQLENEGLILRLGSGGSARYDGDT	-0.467

Sequence	soluble fraction (log2)
HMHSLGDQVFETIKELIVNNTYQPGELLQIDKLAAEFGVSTTPVREALLRLEGLGLVDIERNKAAVVT	0.447
HMHSPLLDRYLAEVGWRLRHLSGAQREDILAGLREHIADLESAGVAPEEIVARLGSPESVADAAAGEF	-0.0802
HMHSPTFYVHVVGQVKVPGVYELEVGSRLFDAVIAAGGFKDDADQASVNLARPLSDGEQIVVLKLGDQ	-0.777
HMHTADDFKQLAKQTSNGQLRTRYLALYLFKNGETRTQIATYLGVARGSVNTWVSNYLAHGLEGLQSKP	-2.95
HMHTSEDLEKLLTRYFQSHESINRQQFEQLSGFTRTTASRRLKALVEAGKLKNIGLHHFPVYKPTEGNF	-0.485
HMHVGVWIMNEKGEILLEQRASNKKVDPNKWARIGGHVDAGEKPIQAIQREILEEIGVKIPLENFIVLET	-0.266
HMHVLAVDEALHKLTELNELHAKIVEMRFFSGMTVQEVADELGVSKRKIESEWTMIKAWLRKELN	-0.199
HMHVSLSGKIHSELRKLILNGELKAGERLPSEPDLAHELGVSRNSLREAIGLLQREGLLLKKHGIGTFVTD	-1.42
HMHVYQSLVTDRVVPGGGYRTTEAILSTEAWRNTLLEQAKRELIGVRNKYASLTELAKVWTAIDTVT	-1.65
HMHYALTVDFPAALEARIDPAHRAALRGVLAHDPRPSYQSDPERLYGVAFAGKNVKFTVEDGVLTVRKIEE	-0.151
HMHYKLIIFENHTKSTSLDITPEQARQILGVTDYTPEQYEILAEITNRPASYFMDDLVDYYVD	-2.33
HMHYNMNYLENLTKTELFDLAKNKFGLTYAEMERHLSIPEGGARYAIKAEHSKYGSDIKKYLVEFLLE	-1.06
HMIADPAKPDWTTILAPVTTGTTVTHKTFGQGTVTKLDKTKKYLTVSFAAGQKNFVFPNAFIDGFLK	-0.159
HMIADSSSIHQDAKQQLHSYLRTNIQPLMRAGKQLDLKDILHHVTIRKPKLVQQLGMKQVQHMVQVLLD	-1.04
HMIAGHLQEKKGFFYIVLSYPDAAGKRKTKWFPTKLSVKGNKKKAEVMLMDARKTFVPPETPL	-0.497
HMIAITVGSKVRVKAGATFSDGTKPFTEVYNTVYDVQLLSRNGKEARIGIGEQWTGWMYISDLYPADQ	-3.42
HMIAPQISSGKVNTKELNVRSGPATTFGIVKKLPLNAMVGIFEEKNGWFRIATGQWVSKTYVDL	-2.33
HMIAVLEEGSRFRAINDISGKPFGPEMIIKNGQVIAAGKKILTKPKKLIGKKEGTKFNISGKEYVIKDI	-0.747
HMIAWNFDTMKESLSEMERVDYQEFIKAFLSLELSISDRTILNQVYQDYMDEDDLSLISDELRV	0.0602
HMIDDNTIIQIGDSYSKSIRLLGEPIELKNRSLNQKSYFMAVYDFKGRRYRLFFENDVLFDILRD	-2.66
HMIDELLDPTHRIMVRHPRVDYVSPGFLIGPDKDVILWGFTGGIIARLFDFLGWTRPWDQSHVQDLPPYML	-0.245
HMIDENILSEEIKHYIETNNYAKDDKLPSERSLASLFNVSRALVRKSLISLVDVNYLYVKDKSGYYING	-0.0579
HMIDEPENLIQEDKMVNIIYDLALLEGVKTFNSSNFQSVKSNDFVYKKYKIDSLQFAKSTQFYASDINR	0.0618
HMIDFDEIEILSSSKIEKIENSEYLKSSIFEKDSNQYIYRLSFENRDQLKNFKKEIEDIDQIKKIDVTY	0.0545
HMIDHKVIRSFRQKRNMTLQELAQKANLSVSYLSEIELGKKQPSLETLDKLSKALNISLEGL	-0.535
